Results published in PMC3718333.

Biological target: recombinant MHJ_0125 (polyhistidine fusion of the M42 glutamyl aminopeptidase MHJ_0125 of Mycoplasma hyopneumoniae) (Mycoplasma hyopneumoniae (strain J))
Test: SEC; 10 µg purified rMHJ_0125 on Superdex 200 (3.2 x 300 mm), 20 mM Tris-HCl pH 8.0, 50 µl/min; markers blue dextran, apoferritin, myoglobin

Q: How did the stoichiometry N turn out when “recombinant MHJ_0125 (polyhistidine fusion of the M42 glutamyl aminopeptidase MHJ_0125 of Mycoplasma hyopneumoniae) (enzyme)” was run?
A: 12
